The target of assay [1] is Dil labelled LDL (low-density lipoprotein). The assay is described as follows: MST; purified LDLR^Q722* or wild-type LDLR with Dil labelled LDL; Kd model; three replicates.
For assay [2] the target is unchanged.
The target is the same in assay [3]. Kind of assay: MST; sEV^Ad-LDLR-Q722* with Dil-LDL; Kd model; pH 5.5.
The target is the same in assay [4]. Kind of assay: MST; sEV^Ad-LDLR-Q722* with Dil-LDL; Kd model; pH 7.4.
Assay [5] shares this target. The assay is described as follows: MST; sEV (isolated from supernatant of infected HepG2) with Dil-LDL; Kd model; pH not stated.

Regarding “LDLR^Q722* (truncated soluble LDLR, 1-722 amino acids), purified (from UniProt P01130 22-722) (domain or fragment)”, in assay [1], the Kd (in general, the constant that tells how readily two partners part at equilibrium) is 7.89 µM.

On to “LDLR^Q722* attached to the surface of small extracellular vesicles (sEV^Ad-LDLR-Q722*) (from UniProt P01130 22-722) (domain or fragment)”, for which the uptake of Dil-LDL by Ldlr–/– primary hepatocytes (confocal fluorescence intensity), sEV^Ad-LDLR-Q722* group against the sEV^Ad-LDLR-WT group in assay [2] came out at 3.13 fold. This substance yielded an uptake of Dil-LDL by Ldlr–/– primary hepatocytes (confocal fluorescence intensity), sEV^Ad-LDLR-Q722* group against the sEV^Ad-control group in assay [2] of 2.68 fold. Moreover, the Kd in assay [3] stood at 0.013 µM; in assay [4], 4.98 µM; in assay [5], 0.012 µM.

As to “wild-type LDLR (N-terminal residues 1-788) (from UniProt P01130 22-788) (domain or fragment)”, the Kd in assay [1] was found to be 7.16 µM.
